In publication PMC3095675 (Journal of molecular biology, 2011):

How the values were obtained:
[1] = target: Cp149.G123A (Hepatitis B virus) (UniProt P03147); assay: SEC
[2] = target: Cp149.G123A (Hepatitis B virus) (UniProt P03147); assay: AUC
[3] = target: Cp149.G123A.T114A (Hepatitis B virus) (UniProt P03147); assay: AUC
[4] = target: Cp149.R127A (Hepatitis B virus) (UniProt P03147); assay: AUC
[5] = target: Cp149.R127A.G123A (Hepatitis B virus) (UniProt P03147); assay: AUC
[6] = target: Cp149.S141A (Hepatitis B virus) (UniProt P03147); assay: AUC
[7] = target: Cp149.T114A (Hepatitis B virus) (UniProt P03147); assay: AUC
[8] = target: Cp149.Y132A (Hepatitis B virus) (UniProt P03147); assay: AUC
[9] = target: Cp149.Y132A.G123A.R127A (Hepatitis B virus) (UniProt P03147); assay: AUC
[10] = target: Cp(−10)149.5A (Hepatitis B virus) (UniProt P03147); assay: cross-linking
[11] = target: Cp(−10)149.G123A (Hepatitis B virus) (UniProt P03147); assay: AUC
[12] = target: Cp(−10)149d.C(−7)A.C61.C48A.C107A (Hepatitis B virus) (UniProt P03147); assay: cross-linking
[13] = target: Cp(−10)149d.C(−7)A.C61.C48A.C107A (Hepatitis B virus) (UniProt P03147); assay: AUC
cross-linking = target: the molecule itself; assay: cross-linking
AUC = target: the molecule itself; assay: AUC

In the case of “Cp149.G123A (from UniProt P03147 1-149) (domain or fragment)”, the stoichiometry N [1] is reported as 2 and the stoichiometry N [2] is reported as 2.

Molecule “Cp149.G123A.T114A (from UniProt P03147 1-149) (domain or fragment)” has a stoichiometry N [3] of 2.

“Cp149.R127A (from UniProt P03147 1-149) (domain or fragment)” gave a stoichiometry N [4] of 2.

In the case of “Cp149.R127A.G123A (from UniProt P03147 1-149) (domain or fragment)”, the stoichiometry N [5] is reported as 2.

“Cp149.S141A (from UniProt P03147 1-149) (domain or fragment)” was tested, and the stoichiometry N [6] was 2.

Work on “Cp149.T114A (from UniProt P03147 1-149) (domain or fragment)” yielded a stoichiometry N [7] of 2.

With “Cp149.Y132A (from UniProt P03147 1-149) (domain or fragment)” the stoichiometry N [8] was 2.

With “Cp149.Y132A.G123A.R127A (from UniProt P03147 1-149) (domain or fragment)” the stoichiometry N [9] was 2.

“Cp(−10)149.5A (from UniProt P03147 1-149) (natural protein)” gave a stoichiometry N [10] of 2.

In the case of “Cp(−10)149.G123A (from UniProt P03147 1-149) (natural protein)”, the stoichiometry N [11] is reported as 2.

Molecule “Cp(−10)149d.C(−7)A.C61.C48A.C107A (from UniProt P03147 1-149) (natural protein)” has a stoichiometry N [12] of 2 and a stoichiometry N [13] of 2.

B1: Cp149.4A (domain or fragment)
chain: MDIDPYKEFGATVELLSFLPSDFFPSVRDLLDTAAALYRDALESPEHASPHHTALRQAILCWGDLMTLATWVGTNLEDPASRDLVVSYVNTNVGLKFRQLLWFHISALTFGRETVLEYLVSFAVWIATPPAYRPPNAPILSTLPETTVV
With B1 the “stoichiometry N” value (cross-linking) was 2.

B2: Cp143 (domain or fragment)
chain: MDIDPYKEFGATVELLSFLPSDFFPSVRDLLDTAAALYRDALESPEHCSPHHTALRQAILCWGDLMTLATWVGTNLEDPASRDLVVSYVNTNVGLKFRQLLWFHISCLTFGRETVLEYLVSFGVWIRTPPAYRPPNAPILSTL
In the case of B2, the “stoichiometry N” value (AUC) is reported as 2.

B3: Cp141 (domain or fragment)
chain: MDIDPYKEFGATVELLSFLPSDFFPSVRDLLDTAAALYRDALESPEHCSPHHTALRQAILCWGDLMTLATWVGTNLEDPASRDLVVSYVNTNVGLKFRQLLWFHISCLTFGRETVLEYLVSFGVWIRTPPAYRPPNAPILS
With B3 the “stoichiometry N” value (AUC) was 2.
